Assay results: paper PMC8141644
Where two headings read alike, the source gives them in different places. Blank lines part the entries; values can stand above or below the substance they belong to.

Assays:
PD-L1-ECD = PD-L1-ECD (UniProt Q9NZQ7); test: BLI
CD16a-ECD (human) [1] = target: CD16a-ECD (human) (UniProt P08637)
CD16a-ECD (human) [2] = target: CD16a-ECD (human) (UniProt P08637); test: BLI

CD16a-ECD (human), sequence (P08637 17-208): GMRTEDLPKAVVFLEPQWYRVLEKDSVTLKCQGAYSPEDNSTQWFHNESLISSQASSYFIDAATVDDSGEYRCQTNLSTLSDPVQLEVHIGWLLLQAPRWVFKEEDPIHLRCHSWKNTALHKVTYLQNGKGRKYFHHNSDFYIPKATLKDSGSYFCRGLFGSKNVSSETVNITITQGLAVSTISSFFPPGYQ
PD-L1-ECD, sequence (Q9NZQ7 19-238): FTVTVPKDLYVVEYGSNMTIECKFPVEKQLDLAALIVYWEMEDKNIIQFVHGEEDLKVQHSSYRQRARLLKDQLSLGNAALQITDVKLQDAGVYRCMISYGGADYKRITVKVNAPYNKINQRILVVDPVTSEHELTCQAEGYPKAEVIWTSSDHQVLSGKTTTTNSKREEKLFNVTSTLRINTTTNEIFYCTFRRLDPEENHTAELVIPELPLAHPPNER

- EC50 of the ADCC reporter bioassay (Promega G7010, luciferase; A431 target cells; 0.2 nM – 13.3 nM antibody) (CD16a-ECD (human) [1]): 0.362 nM
Substance: bispecific hdFEB4-1-4×hNKE14-8 (bispecific antibody)

- Kd (CD16a-ECD (human) [2]; bispecific antibody): 16.5 nM
Substance: bispecific hdFEB4-1-4×hNKE14-8 (from UniProt P01857)

The remaining lines, values behind:

Substance: ICI12 (from UniProt P01857)
- Kd (PD-L1-ECD): 5.8 nM

Substance: ICI13 (from UniProt P01857)
- Kd (PD-L1-ECD): 3.2 nM

Substance: hNKE14-8 (from UniProt P01857)
- Kd (CD16a-ECD (human) [2]): 15.5 nM
